Seven molecules from patent US11072592B2, “Small molecules that enable cartilage rejuvenation” (The Regents of the University of California, priority 2015, dated 2021) can be followed below.

Assay [1] relates to pSTAT3 and MYC. The experiment in a line: Western blot of pSTAT3 and MYC in adult pig articular chondrocytes. The format is cell-based. The conditions noted are these: adult pig articular chondrocytes; for ability of both LIF and RCGD 423 to induce increases in pSTAT3 and MYC: inhibitor plus LIF or RCGD 423; for levels of MYC / levels of pSTAT3: treated vs untreated, relative to histone H3. The source says: Only early passages of chondrocytes (passage 0-2) were used for experimentation to avoid de-differentiation and loss of cartilage phenotype (Wu et al., 2014). Cartilage explants were made using 1, 2 or 8 mm biopsy punch and wet weight of each explant determined prior to experimentation. For cell isolation cartilage tissue was digested as described previously (Wu et al., 2015). Postnatal paraffin embedded joint and growth plate specimens were kindly donated by Dr Marcel Karperien from the University of Twente (Netherlands) and Dr Nick Bernthal from University of California Los Angeles. All donated material was anonymous and carried no personal identifiers. Cell culture reagents were purchased from Life Technologies, Inc. (Grand Island, N.Y.). Growth factors LIF, OSM, IL-6, TNF-α, IL-1β were purchased from Life Technologies, Inc (Grand Island, N.Y.). STATTIC, 10058-F4, SCl44 hydrochloride, and CP-690550 were purchased from Sigma Aldrich (St. Louis, Mo.). RCGD 423 (N-(4-Bromophenyl)-4-phenyl-1,3-thiazol-2-amine) was synthesized and provided by MolPort (Riga, Latvia). Fetal, adult and pig chondrocytes were cultured in DMEM F12 medium containing 10% (vol/vol) fetal bovine serum and 1% Penicillin-Streptomycin (vol/vol) at 37° C. in a humidified atmosphere of 95% aid and 5% CO2. Media was replenished with DMEM F12 medium containing 1% (vol/vol) fetal bovine serum and 1% Penicillin-Streptomycin (vol/vol) once treatments were added. For 3-dimensional (3D) cell cultures adult human articular chondrocytes were incubated with or without RCGD 423 using 10% solution of Mebiol® hydrogel from Cosmo Bio (Carlsbad, Calif.) in X-vivo 15 serum free medium from Lonza (Walkersville, Md.) as described previously (Wu et al., 2014).
(§1) Treated and non-treated ells were lysed in RIPA Lysis and Extraction Buffer (Pierce, Rockford, Ill.) containing protease inhibitors (Pierce) followed by sonication with a 15-second pulse at a power output of 2 using the VirSonic 100 (SP Industries Company, Warminster, Pa.). Protein concentrations were determined by BCA protein assay (Pierce). Proteins were resolved with SDS-PAGE utilizing 4-15% Mini-PROTEAN TGX Precast Gels and transferred to Trans-Blot Turbo Transfer Packs with a 0.2-μm pore-size nitrocellulose membrane. The SDS-PAGE running buffer, 4-15% Mini-PROTEAN TGX Precast Gels, Trans-Blot Turbo Transfer Packs with a 0.2-μm pore-size nitrocellulose membrane were purchased from Biorad (Hercules, Calif.). Nitrocellulose membranes were blocked in 5% nonfat milk in 0.05% (v/v) Tween 20 (PBST) (Corning, Manassas, Va.). Membranes were then incubated with primary antibodies phospho-STAT3 (#9131), MYC (#5605), NF-κB p65 (#D14E12), pAKT (#9272) Histone 3 (#9715) from Cell Signaling, (Danvers, Mass.); MEK1/2 (ab70613) and p38 (ab795) from Abcam (Cambridge, Mass.) overnight. After washing in PBS containing 0.05% (v/v) Tween 20 (PBST), membranes were incubated with Goat anti-Rabbit IgG (H+L) Secondary Antibody (Thermo Scientific Rockford, Ill.). After washing, membranes were developed with the Clarity Western ECL Blotting Substrate (Hercules, Calif.).

The test system of assay [2] is cartilage explants. The experiment in a line: Cartilage explant culture: tissue expansion, COL2 and GAG content. It is filed as cell-based, pig. The conditions noted are these: cartilage explants/plugs in culture. The source says:
The same stimulatory effect was achieved after treatment of explants with CRMs identified in our small molecule screen. […] This can test if activation of p-STAT3 and c-MYC by selected small molecules CRM-398 and -423 can result in in situ expansion of articular cartilage tissue.
Mature articular cartilage is comprised of chondrocytes contained within lacunae surrounded by dense extracellular matrix. In order for a regenerative response to occur, proliferation, survival and migration must all proceed in concert. […] We designed two sets of experiments to assess the ability of RCGD 423 to operate in this capacity. First, RCGD 423 or cytokines implicated in the growth and differentiation of articular cartilage were incubated with small plugs of cartilage tissue; after 5 weeks, the amount of COL2 and glycosaminoglycans (GAGs) were determined.
Cartilage explants were washed with PBS and then directly digested or stored at […]. For digestion, explants were transferred in digestion buffer composed of 1 mg/mL proteinase K in Tris/Ethylene diamine tetra-acetic acid (EDTA) buffer (pH 7.6) containing 18.5 μg/mL iodoacetamide and 1 μg/mL pepstatin A) for 16-72 h at 56° C. After complete digestion the GAG content was spectrophotometrically determined with 1,9-dimethylmethylene blue chloride staining in the phosphate buffer with ethylene diamine tetra-acetic acid buffer (14.2 g/L Na2HPO4 and 3.72 g/L Na2EDTA, pH 6.5) using an Infinite M1000 Pro microplate reader (Tecan) at an absorbance of 520 nm with chondroitin sulfate as a standard. Amount of total DNA in explants was determined by a CyQuant DNA Kit (Molecular Probes by Life Technology) using Qubit 1.0 fluorometer (Invitrogen).
Cultured explants were first digested in testicular hyaluronidase (0.05% in 50 mM HEPES) for 2 hours at 37° C. 0.5M glacial acetic acid was added to digestion solution to maximize the collagen swelling and provide best pepsin access. Pepsin (250 μg/ml) was then used to further digest the pellets in combination with rotation and occasional gentle vortexing at 4° C. for 18-24 hours. Cold tris base and NaOH were added to the digestion solution to neutralize the acetic acid. Digestion solution was vigorously vortexed immediately, and subsequently rotated at 4° C. overnight to maximize collagen solubility. Tubes were centrifuged to separate undigested tissue and supernatant. Any undigested tissue was subjected to the digestion process again. All supernatants were combined for ELISA. Concentration of collagen II in the supernatant was measured by Type I/II Collagen Detection Kit (Chondrex, Inc, Redmond, Wash.), according to manufacturer's instruction and normalized either to DNA content or wet weight of the explants determined prior to experimentation.

Assay [3] relates to MAPK, AKT, NF-κB pathways. The experiment in a line: Western blot of MAPK, AKT and NF-κB signaling in adult pig articular chondrocytes. The format is cell-based. Particulars: 24 hours. As to the method: FIGS. 30A-30B. […] (FIG. 30A) Adult pig articular chondrocytes were cultured for 24 hours with the indicated cytokines or RCGD 423 and the levels of pSTAT3 and MYC were measured with respect to histone H3. Representative data for other proteins in the MAPK (p38 and MEK1/2), AKT (phospho-AKT; pAKT) or NF-KB (NF-KB p65) are also shown. (FIG. 30B) Levels of transcription of genes indicative of a catabolic response were determined via quantitative PCR in adult pig articular chondrocytes treated with OSM, IL-6, TNF-α, LIF or RCGD 423. Data are represented at mean±SD.
Cartilage degeneration is generally considered a feed-forward process, in which small losses of chondrocytes result in microenvironmental changes including induction of an inflammatory response and other pro-catabolic events (Hunziker, 2002). In turn, these alterations in the joint milieu promote production of matrix degrading proteins including MMPs (collagenases) and proteins of the ADAMTS family (aggrecanases). LIF has been implicated in promoting this cycle of matrix destruction during the pathogenesis of osteoarthritis (Hui et al., 2000; Lotz et al., 1992), although its role in this process has been controversial. In order to better understand the mechanism of action of LIF, RCGD 423 and known pro-inflammatory cytokines in the promotion of degeneration, we stimulated adult pig articular chondrocytes with these molecules and quantitated the levels of activated downstream proteins that mediate the cellular signaling response (FIG. 30A).
as §1
Background: Immunoblotting shows a protein as a band on a membrane.

As to `Cl.O=C(NNc1nc2cc(F)ccc2n2cccc12)c1cnccn1` [gp130 inhibitor, reference compound], in assay [1], the “ability of both LIF and RCGD 423 to induce increases in pSTAT3 and MYC” value was “greatly reduced”.

Consider TGF-beta 1: morphogen, for which the “expansion of cartilage tissue in explants” value (shortened to “expansion”) in assay [2] is given as “little or no effect”.

For `C[C@@H]1CCN(C(=O)CC#N)C[C@@H]1N(C)c1ncnc2[nH]ccc12` [JAK inhibitor, reference compound], the “ability of both LIF and RCGD 423 to induce increases in pSTAT3 and MYC” value in assay [1] was “greatly reduced”.

B1: IL-la: inflammatory cytokine (protein, UniProt P01583 113-271, looked up)
Interleukin-1 alpha: SAPFSFLSNVKYNFMRIIKYEFILNDALNQSIIRANDQYLTAAALHNLDEAVKFDMGAYKSSKDDAKITVILRISKTQLYVTAQDEDQPVLLKEMPEIPKTITGSETNLLFFWETHGTKNYFTSVAHPNLFIATKQDYWVCLAGGPPSITDFQILENQA
B1: in assay [1], the “levels of MYC” value is listed as “inhibit accumulation” and the “levels of pSTAT3” value is given as “inhibit accumulation”.

B2: GDF5: BMPR1B ligand (protein, UniProt P43026 382-501, looked up)
Growth/differentiation factor …: APLATRQGKRPSKNLKARCSRKALHVNFKDMGWDDWIIAPLEYEAFHCEGLCEFPLRSHLEPTNHAVIQTLMNSMDPESTPPTCCVPTRLSPISILFIDSANNVVYKQYEDMVVESCGCR
Regarding B2, the “expansion” value in assay [2] is given as “little or no effect”.

B3: BMP4: driver of chondrocyte hypertrophy (protein, UniProt P12644 293-408, looked up)
Bone morphogenetic protein 4: SPKHHSQRARKKNKNCRRHSLYVDFSDVGWNDWIVAPPGYQAFYCHGDCPFPLADHLNSTNHAIVQTLVNSVNSSIPKACCVPTELSAISMLYLDEYDKVVLKNYQEMVVEGCGCR
As for B3, the “expansion” value in assay [2] is reported as “little or no effect”.

B4: OSM: IL-6 family cytokine oncostatin M (protein, UniProt P13725 26-221, looked up)
Oncostatin-M: AAIGSCSKEYRVLLGQLQKQTDLMQDTSRLLDPYIRIQGLDVPKLREHCRERPGAFPSEETLRGLGRRGFLQTLNATLGCVLHRLADLEQRLPKAQDLERSGLNIEDLEKLQMARPNILGLRNNIYCMAQLLDNSDTAEPTKAGRGASQPPTPTPASDAFQRKLEGCRFLHGYHRFMHSVGRVFSKWGESPNRSRR
Consider B4, for which the pro-inflammatory response entry in assay [3] was “strong pro-inflammatory response”. For the same molecule, in assay [1], the “levels of MYC” value is listed as “does not elicit any upregulation” and the “levels of pSTAT3” value was “does not elicit any upregulation”.
